Assay results from publication PMC3474739, “Novel Frataxin Isoforms May Contribute to the Pathological Mechanism of Friedreich Ataxia” (PLoS ONE, 2012).

B1: human ISCU, mitochondrial mature form (natural protein, UniProt Q9H1K1 35-167, looked up)
chain: YHKKVVDHYENPRNVGSLDKTSKNVGTGLVGAPACGDVMKLQIQVDEKGKIVDARFKTFGCGSAIASSSLATEWVKGKTVEEALTIKNTDIAKELCLPPVKLHCSMLAEDAIKAALADYKLKQEPKKGEAEKK
notes: human ISCU, mitochondrial mature form; source: E. coli BL21(DE3), purified
B2: frataxin isoform II (natural protein, human, UniProt Q16595 76-210, looked up)
chain: MNLRKSGTLGHPGSLDETTYERLAEETLDSLAEFFEDLADKPYTFEDYDVSFGSGVLTVKLGGDLGTYVINKQTPNKQIWLSSPSSGPKRYDWTGKNWVYSHDGVSLHELLAAELTKALKTKLDLSSLAYSGKDA
notes: human frataxin isoform II, 135 amino acids, 14.9 kDa, begins at the second AUG (methionine, 76th aa of the FXN precursor) and runs to the stop codon; Cloned into pET24a(+) with NdeI and XhoI sites; also called FXN II; FXN isoform II; source: E. coli BL21(DE3), purified

How the values were obtained:
Assay in all cases: SEC; purified ISCS/ISD11, ISCU and FXN isoform mixed at a molar ratio of 1:1:1, 1 h anaerobically at room temperature, then Superdex200 in 50 mM Tris, 200 mM NaCl, 5 µM PLP, pH 8.0; fractions analysed by SDS-PAGE
Conditions in all cases: both partners purified
[1] = molecular target: B1
ISCS/ISD11 = molecular target: T1, ISCS/ISD11 (human, UniProt Q9Y697 56-457; Q9HD34 1-91)
T1 construct: human mitochondrial ISCS (NFS1) that misses the first 55 amino acids of the precursor (NFS1Δ1-55); human ISD11; Both chains in pACYCDuet-1; also called NFS1Δ1-55 with ISD11; source: E. coli, co-expressed (plasmid pZM90b), purified; also co-expressed with His-ISCU in E. coli BL21(DE3) or CL100(DE3), in lysate

frataxin isoform II = molecular target: B2

T1 sequence (Q9Y697 56-457, chain 1 of 2): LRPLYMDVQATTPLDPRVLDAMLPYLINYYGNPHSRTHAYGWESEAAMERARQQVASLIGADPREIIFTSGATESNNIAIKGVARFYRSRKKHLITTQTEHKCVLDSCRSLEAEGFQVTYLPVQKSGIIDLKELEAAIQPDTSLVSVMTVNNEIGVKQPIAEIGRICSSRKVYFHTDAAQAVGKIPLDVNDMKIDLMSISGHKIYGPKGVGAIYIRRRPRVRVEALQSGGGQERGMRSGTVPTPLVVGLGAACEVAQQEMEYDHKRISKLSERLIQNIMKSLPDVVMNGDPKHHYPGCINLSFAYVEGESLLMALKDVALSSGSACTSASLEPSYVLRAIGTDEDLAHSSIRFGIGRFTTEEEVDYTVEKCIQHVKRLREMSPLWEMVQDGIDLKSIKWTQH
T1 sequence (Q9HD34 whole entry, chain 2 of 2): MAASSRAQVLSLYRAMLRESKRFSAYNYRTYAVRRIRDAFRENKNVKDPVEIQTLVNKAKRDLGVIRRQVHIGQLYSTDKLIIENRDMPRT

Binder | binding result [1] | binding result (ISCS/ISD11) | binding result (frataxin isoform II)
frataxin isoform I, mature form (natural protein, human, UniProt Q16595 81-210, looked up, Cloned into pET24a(+) with NdeI and XhoI sites; also called FXN I; FXN isoform I; source: E. coli BL21(DE3), purified) SGTLGHPGSLDETTYERLAEETLDSLAEFFEDLADKPYTFEDYDVSFGSGVLTVKLGGDLGTYVINKQTPNKQIWLSSPSSGPKRYDWTGKNWVYSHDGVSLHELLAAELTKALKTKLDLSSLAYSGKDA | binds | binds | –
B1 | – | binds | binds
B2 | – | binds | –
